We go through nine molecules from patent US6998239 (dated 2006).

The chains are these.
B1: human SLC (secondary lymphoid-tissue chemokine) (ligand)
chain: SDGGAQDCCLKYSQRKIPAKVVRSYRKQEPSLGCSIPAILFLPRKRSQAELCADPKELWVQQLMQHLDKTPSPQKPAQGCRKDRGASKTGKKGKGSKGCKRTERSQTPKGP
B2: murine SLC (ligand)
chain: SDGGGQDCCLKYSQKKIPYSIVRGYRKQEPSLGCPIPAILFSPRKHSKPELCANPEEGWVQNLMRRLDQPPAPGKQSPGCRKNRGTSKSGKKGKGSKGCKRTEQTQPSRG
B3: mMIP-1gamma (murine macrophage inflammatory protein 1 gamma) (ligand)
chain: QITHATETKEVQSSLKAQQGLEIEMFHMGFQDSSDCCLSYNSRIQCSRFIGYFPTSGGCTRPGIIFISKRGFQVCANPSDRRVQRCIERLEQNSQPRTYKQ
B4: MCP-3 (ligand)
chain: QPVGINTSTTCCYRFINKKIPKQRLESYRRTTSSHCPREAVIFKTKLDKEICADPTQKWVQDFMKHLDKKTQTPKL
B5: vMIPII (viral macrophage inflammatory protein II) from human Kaposi's sarcoma herpesvirus HHV8 (ligand)
chain: LGASWHRPDKCCLGYQKRPLPQVLLSSWYPTSQLCSKPGVIFLTKRGRQVCADKSKDWVKKLMQQLPVTAR
B6: human TECK (thymus expressed chemokine) (ligand)
chain: QGVFEDCCLAYHYPIGWAVLRRAWTYRIQEVSGSCNLPAAIFYLPKRHRKVCGNPKSREVQRAMKLLDARNKVFAKLHHNTQTFQAGPHAVKKLSSGNSKLSSSKFSNPISSSKRNVSLLISANSGL
modifications: 125I label where used as radioligand
B7: murine ELC (ligand)
chain: GANDAEDCCLSVTQRPIPGNIVKAFRYLLNEDGCRVPAVVFTTLRGYQLCAPPDQPWVDRIIRRLKKSSAKNKGNSTRRSPVS
B8: murine TECK (ligand)
chain: QGAFEDCCLGYQHRIKWNVLRHARNYHQQEVSGSCNLRAVRFYFRQKVVCGNPEDMNVKRAMRILTARKRLVHWKSASDSQTERKKSNHMKSKVENPNSTSVRSATLGHPRMVMMPRKTNN
B9: human ELC (EBI1 ligand chemokine) (ligand)
chain: GTNDAEDCCLSVTQKPIPGYIVRNFHYLLIKDGCRVPAVVFTTLRGRQLCAPPDQPWVERIIQRLQRTSAKMKRRSS
modifications: 125I label where used as radioligand

As a reminder, the IC50 is the concentration that gives 50% inhibition. Read a low IC50 as higher potency.

In this experiment the target is T1, human CCX CKR with N-terminal Flag epitope, stably expressed on HEK293 cells (UniProt Q9NPB9 1-350).
T1 chain: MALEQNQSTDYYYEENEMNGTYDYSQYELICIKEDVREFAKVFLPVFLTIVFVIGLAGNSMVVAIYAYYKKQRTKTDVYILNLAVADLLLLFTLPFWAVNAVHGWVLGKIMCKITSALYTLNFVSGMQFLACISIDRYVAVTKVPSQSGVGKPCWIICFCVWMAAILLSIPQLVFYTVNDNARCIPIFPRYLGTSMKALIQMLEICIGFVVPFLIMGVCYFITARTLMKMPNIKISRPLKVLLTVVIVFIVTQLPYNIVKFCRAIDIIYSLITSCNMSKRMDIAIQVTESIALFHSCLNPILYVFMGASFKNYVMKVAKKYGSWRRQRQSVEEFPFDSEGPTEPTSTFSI
The experiment is described as follows: 125I-ELC competition binding.
B1: the concentration for half-maximal inhibition (IC50) turned out to be 12 nM.

As to B2, the half-maximal inhibitory concentration (IC50) was 4 nM. For B3 the value was 70 nM; for B4, greater than 2000 nM. For B5 the value was 90 nM; for B6, 7 nM. On to B7, for which the half-inhibitory concentration (IC50) turned out to be 1 nM. The molecule B8 came in with an IC50 of 2 nM. For the molecule B9, the IC50 came to 6 nM.
